Test results reported in US20210379110A1 (LENTIGEN TECHNOLOGY, published 2021).

T1: CD22-Fc peptide (R&D systems) (UniProt P20273 20-687)
T1 construct: Bought reagent (R&D systems); not shown: Fc part of the bought reagent
T1 sequence (looked up): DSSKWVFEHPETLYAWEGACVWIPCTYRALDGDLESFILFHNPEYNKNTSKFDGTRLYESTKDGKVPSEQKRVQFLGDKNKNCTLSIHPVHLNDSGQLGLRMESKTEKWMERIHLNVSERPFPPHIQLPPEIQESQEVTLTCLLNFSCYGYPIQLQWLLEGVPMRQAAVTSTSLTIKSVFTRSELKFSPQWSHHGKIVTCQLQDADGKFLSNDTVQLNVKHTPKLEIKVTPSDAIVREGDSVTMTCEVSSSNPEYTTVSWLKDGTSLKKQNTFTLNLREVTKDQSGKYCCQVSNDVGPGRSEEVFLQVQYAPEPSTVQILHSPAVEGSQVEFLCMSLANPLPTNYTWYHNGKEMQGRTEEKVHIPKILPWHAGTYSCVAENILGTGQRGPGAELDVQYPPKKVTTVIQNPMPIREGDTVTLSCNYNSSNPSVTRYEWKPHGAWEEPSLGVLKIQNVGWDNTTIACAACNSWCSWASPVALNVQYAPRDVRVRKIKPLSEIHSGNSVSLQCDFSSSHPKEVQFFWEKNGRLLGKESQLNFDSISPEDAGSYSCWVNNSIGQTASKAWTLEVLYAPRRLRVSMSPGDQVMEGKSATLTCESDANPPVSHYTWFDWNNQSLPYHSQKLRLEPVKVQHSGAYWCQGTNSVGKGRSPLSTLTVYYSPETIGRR

T2: TSLPR-Fc peptide (R&D systems) (UniProt Q9HC73 25-231)
T2 construct: Bought reagent (R&D systems); also called TSLPR-Fc reagent; not shown: Fc part of the bought reagent
T2 sequence (looked up): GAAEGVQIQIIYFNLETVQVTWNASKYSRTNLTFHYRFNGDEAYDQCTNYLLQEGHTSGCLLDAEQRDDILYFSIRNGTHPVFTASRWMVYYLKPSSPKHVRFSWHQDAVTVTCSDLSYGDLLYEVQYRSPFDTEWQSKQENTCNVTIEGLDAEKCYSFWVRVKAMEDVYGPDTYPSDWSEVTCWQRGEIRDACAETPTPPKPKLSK

B1: D0103 (EF-1a-TSLPR-CD22 (16P17) CD8 BBz) (other)
chain: QVTLKESGPGILKPSQTLSLTCSFSGFSLSTSGMGVGWIRQPSGKGLEWLAHIWWDDDKYYNPSLKSQLTISKDTSRNQVFLKITSVDTADTATYYCSRRPRGTMDAMDYWGQGTSVTVSSGGGGSGGGGSGGGGSDIVMTQAASSLSASLGDRVTISCRASQDISKYLNWYQQKPDGTVKLLIYYTSRLHSGVPSRFSGSGSGTDYSLTIRNLEQEDIATYFCQQVYTLPWTFGGGTKLEIKGGGGSGGGGSGGGGSGGGGSGGGGSQVQLQQSGPGLVKHSQTLSLTCAISGDSVSSNSAAWNWIRQSPSRGLEWLGRTYYRSKWYNDYAVSVKSRITINPDTSKNQFSLQLNSVTPEDTAVYYCAQEVEPHDAFDIWGQGTMVTVSSGGGGSGGGGSGGGGSDIQMTQSPSSVYASVGDKVTITCRASQDVSGWLAWYQQKPGLAPQLLISGASTLQGEVPSRFSGSGSGTDFTLTISSLQPEDFATYYCQQAKYFPYTFGQGTKLEIKAAATTTPAPRPPTPAPTIASQPLSLRPEACRPAAGGAVHTRGLDFACDIYIWAPLAGTCGVLLLSLVITLYCKRGRKKLLYIFKQPFMRPVQTTQEEDGCSCRFPEEEEGGCELRVKFSRSADAPAYQQGQNQLYNELNLGRREEYDVLDKRRGRDPEMGGKPRRKNPQEGLYNELQKDKMAEAYSEIGMKGERRRGKGHDGLYQGLSTATKDTYDALHMQALPPR
notes: Tandem chimeric antigen receptor on human primary T cells: leader, TSLPR scFv 3G11 (membrane-distal), (GGGGS)5, CD22 scFv 16P17, CD8 hinge/TM, 4-1BB, CD3 zeta; also called CAR TSLPR-22 BBz; tandem D0103 TSLPR×CD22 CAR
B2: D0104 (EF-1a-CD22 (16P17)-TSLPR CD8 BBz) (other)
chain: QVQLQQSGPGLVKHSQTLSLTCAISGDSVSSNSAAWNWIRQSPSRGLEWLGRTYYRSKWYNDYAVSVKSRITINPDTSKNQFSLQLNSVTPEDTAVYYCAQEVEPHDAFDIWGQGTMVTVSSGGGGSGGGGSGGGGSDIQMTQSPSSVYASVGDKVTITCRASQDVSGWLAWYQQKPGLAPQLLISGASTLQGEVPSRFSGSGSGTDFTLTISSLQPEDFATYYCQQAKYFPYTFGQGTKLEIKGGGGSGGGGSGGGGSGGGGSGGGGSQVTLKESGPGILKPSQTLSLTCSFSGFSLSTSGMGVGWIRQPSGKGLEWLAHIWWDDDKYYNPSLKSQLTISKDTSRNQVFLKITSVDTADTATYYCSRRPRGTMDAMDYWGQGTSVTVSSGGGGSGGGGSGGGGSDIVMTQAASSLSASLGDRVTISCRASQDISKYLNWYQQKPDGTVKLLIYYTSRLHSGVPSRFSGSGSGTDYSLTIRNLEQEDIATYFCQQVYTLPWTFGGGTKLEIKAAATTTPAPRPPTPAPTIASQPLSLRPEACRPAAGGAVHTRGLDFACDIYIWAPLAGTCGVLLLSLVITLYCKRGRKKLLYIFKQPFMRPVQTTQEEDGCSCRFPEEEEGGCELRVKFSRSADAPAYQQGQNQLYNELNLGRREEYDVLDKRRGRDPEMGGKPRRKNPQEGLYNELQKDKMAEAYSEIGMKGERRRGKGHDGLYQGLSTATKDTYDALHMQALPPR
notes: Tandem chimeric antigen receptor on human primary T cells: leader, CD22 scFv 16P17 (membrane-distal), (GGGGS)5, TSLPR scFv 3G11, CD8 hinge/TM, 4-1BB, CD3 zeta; also called CAR 22-TSLPR BBz; tandem D0104 CD22×TSLPR CAR
B3: D0111 (EF-1a-TSLPR-CD22 (m971) CD8 BBz) (other)
chain: QVTLKESGPGILKPSQTLSLTCSFSGFSLSTSGMGVGWIRQPSGKGLEWLAHIWWDDDKYYNPSLKSQLTISKDTSRNQVFLKITSVDTADTATYYCSRRPRGTMDAMDYWGQGTSVTVSSGGGGSGGGGSGGGGSDIVMTQAASSLSASLGDRVTISCRASQDISKYLNWYQQKPDGTVKLLIYYTSRLHSGVPSRFSGSGSGTDYSLTIRNLEQEDIATYFCQQVYTLPWTFGGGTKLEIKGGGGSGGGGSGGGGSGGGGSGGGGSQVQLQQSGPGLVKPSQTLSLTCAISGDSVSSNSAAWNWIRQSPSRGLEWLGRTYYRSKWYNDYAVSVKSRITINPDTSKNQFSLQLNSVTPEDTAVYYCAREVTGDLEDAFDIWGQGTMVTVSSGGGGSGGGGSGGGGSDIQMTQSPSSLSASVGDRVTITCRASQTIWSYLNWYQQRPGKAPNLLIYAASSLQSGVPSRFSGRGSGTDFTLTISSLQAEDFATYYCQQSYSIPQTFGQGTKLEIKAAATTTPAPRPPTPAPTIASQPLSLRPEACRPAAGGAVHTRGLDFACDIYIWAPLAGTCGVLLLSLVITLYCKRGRKKLLYIFKQPFMRPVQTTQEEDGCSCRFPEEEEGGCELRVKFSRSADAPAYQQGQNQLYNELNLGRREEYDVLDKRRGRDPEMGGKPRRKNPQEGLYNELQKDKMAEAYSEIGMKGERRRGKGHDGLYQGLSTATKDTYDALHMQALPPR
notes: Tandem chimeric antigen receptor on human primary T cells: leader, TSLPR scFv 3G11 (membrane-distal), (GGGGS)5, CD22 scFv m971, CD8 hinge/TM, 4-1BB, CD3 zeta; also called CAR TSLPR-22m971 BBz
B4: D0112 (EF-1a-CD22 (m971)-TSLPR CD8 BBz) (other)
chain: QVQLQQSGPGLVKPSQTLSLTCAISGDSVSSNSAAWNWIRQSPSRGLEWLGRTYYRSKWYNDYAVSVKSRITINPDTSKNQFSLQLNSVTPEDTAVYYCAREVTGDLEDAFDIWGQGTMVTVSSGGGGSGGGGSGGGGSDIQMTQSPSSLSASVGDRVTITCRASQTIWSYLNWYQQRPGKAPNLLIYAASSLQSGVPSRFSGRGSGTDFTLTISSLQAEDFATYYCQQSYSIPQTFGQGTKLEIKGGGGSGGGGSGGGGSGGGGSGGGGSQVTLKESGPGILKPSQTLSLTCSFSGFSLSTSGMGVGWIRQPSGKGLEWLAHIWWDDDKYYNPSLKSQLTISKDTSRNQVFLKITSVDTADTATYYCSRRPRGTMDAMDYWGQGTSVTVSSGGGGSGGGGSGGGGSDIVMTQAASSLSASLGDRVTISCRASQDISKYLNWYQQKPDGTVKLLIYYTSRLHSGVPSRFSGSGSGTDYSLTIRNLEQEDIATYFCQQVYTLPWTFGGGTKLEIKAAATTTPAPRPPTPAPTIASQPLSLRPEACRPAAGGAVHTRGLDFACDIYIWAPLAGTCGVLLLSLVITLYCKRGRKKLLYIFKQPFMRPVQTTQEEDGCSCRFPEEEEGGCELRVKFSRSADAPAYQQGQNQLYNELNLGRREEYDVLDKRRGRDPEMGGKPRRKNPQEGLYNELQKDKMAEAYSEIGMKGERRRGKGHDGLYQGLSTATKDTYDALHMQALPPR
notes: Tandem chimeric antigen receptor on human primary T cells: leader, CD22 scFv m971 (membrane-distal), (GGGGS)5, TSLPR scFv 3G11, CD8 hinge/TM, 4-1BB, CD3 zeta; also called CAR 22m971-TSLPR BBz

Target: T1, CD22-Fc peptide (R&D systems)
Test: flow cytometry, CAR T cells stained with CD22-Fc then anti-Fc AF647
Method: (§1) For CAR surface expression, TSLPR Fc, CD19Fc and CD22Fc peptide (R&D systems, Minneapolis, Minn.) were used followed anti Fc-AF647 (Jackson ImmunoResearch, West Grove, Pa.). T cell subtypes was further identified with anti-CD4 antibody conjugated to VioBlue fluorophore (Miltenyi Biotec Bergisch Gladbach, Germany). Dead cells in all studies were excluded by 7AAD staining (BD Biosciences, San Jose, Calif.). Flow data were analyzed with MACSQuantify software.
To develop the tandem CD22 and TSLPR targeting CARs, CD22-directed scFv 16P17 was used in either membrane-proximal or membrane-distal orientation (construct D0103 and D0104, respectively). For TSLPR-targeting, scFv 3G11 was used. Surface expression of the tandem TSLPR×CD22 CAR incorporating the human ScFv 16P17 together with the TSLPR scFv 3G11, when the TSLPR scFv is positioned in the membrane-distal orientation (D0103), or in the membrane-proximal orientation (D0104) is shown in FIG. 5. Specific detection of each scFv domain within the CAR structure was facilitated by CAR T cell staining with TSLPR-Fc peptide, or CD22-Fc peptide, followed by a secondary staining with anti-Fc AF647-labeled reagent, and detected in the APC channel by flow cytometry. In CAR construct D0103, in which CD22 scFv was membrane-proximal and the TSLPR scFv was membrane-distal, the TSLPR scFv was detected at 26% of the transduced cells, and CD22 scFv was detected at 11%. In CAR construct D0104 with the opposite binder orientation (i.e. the CD22 scFv was membrane-distal, and the TSLPR scFv was membrane-proximal), the detection levels were 75% and 39% for scFv TSLPR and CD22, respectively (FIG. 5).
The surface expression of the tandem TSLPR×CD22 CAR incorporating the human ScFv m971 in membrane-proximal orientation (D0111), and in the membrane-distal orientation (D0112) is shown in FIG. 8. Specific detection of each scFv domain within the CAR structure was facilitated by CAR T cell staining with TSLPR-Fc peptide, or CD22-Fc peptide, followed by a secondary staining with anti-Fc AF647-labeled reagent and detection in the APC channel by flow cytometry. In CAR construct D0111, in which CD22 scFv was membrane-proximal and the TSLPR scFv was membrane-distal, the TSLPR scFv was detected at 34% of the transduced cells, and CD22 scFv was detected at 11%.

percent of transduced T cells stained by antigen-Fc [%]	Binder
11	B1
39	B2
11	B3
39	B4

Target: T2, TSLPR-Fc peptide (R&D systems)
Test: flow cytometry, CAR T cells stained with TSLPR-Fc then anti-Fc AF647
Method: as §1, with “Flow cytometric analysis was performed to detect the CAR molecule surface expression. Half million of harvested primary T cells were washed and stained with cold AutoMACS buffer supplemented with 0.5% bovine serum albumin (Miltenyi Biotec, Bergisch Gladbach, Germany), and resuspended in 200 ul Running Buffer before acquired by MACSQuant®10 Analyzer (Miltenyi Biotec Bergisch Gladbach, Germany). For” for “For”
Specific detection of each scFv domain within the CAR structure was facilitated by CAR T cell staining with TSLPR-Fc peptide, or CD19-Fc peptide, followed by a secondary staining with anti-Fc AF647-labeled reagent, and fluorescence was detected in the APC channel. In CAR construct D0101, in which CD19 scFv was membrane-proximal and the TSLPR scFv was membrane-distal, the TSLPR scFv was detected at 44% of the transduced cells, and CD19 scFv was detected at 31%. In CAR construct D0102 with the reverse binder orientation (i.e. the TSLPR scFv membrane-proximal, and CD19 scFv membrane-distal), the detection levels were 85% and 75% for scFv TSLPR and CD19, respectively (FIG. 2).

percent of transduced T cells stained by antigen-Fc [%]	Binder
26	B1
75	B2
34	B3
73	B4
